Measured values taken from article PMC10397247.

Legend:
[1] = target: T1, APC3881-AA; assay: two-hybrid library CCmax; details: mean of both orientations;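 note: natural log of median RNA to DNA barcode read ratio; higher means stronger binding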
T1 chain: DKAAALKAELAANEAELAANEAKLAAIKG

[2] = target: T2, APC8516-AA; assay: two-hybrid library CCmax; details: mean of both orientations;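 note: natural log of median RNA to DNA barcode read ratio; higher means stronger binding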
T2 chain: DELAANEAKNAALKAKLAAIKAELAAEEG

[3] = target: T3, APC8401-AA; assay: two-hybrid library CCmax; details: mean of both orientations;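 note: natural log of median RNA to DNA barcode read ratio; higher means stronger binding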
T3 chain: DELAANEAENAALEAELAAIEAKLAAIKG

[4] = target: T4, APC4100-AA; assay: two-hybrid library CCmax; details: mean of both orientations;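 note: natural log of median RNA to DNA barcode read ratio; higher means stronger binding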
T4 chain: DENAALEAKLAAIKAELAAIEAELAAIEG

[5] = target: T5, APC5009-AA; assay: two-hybrid library CCmax; details: mean of both orientations;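 note: natural log of median RNA to DNA barcode read ratio; higher means stronger binding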
T5 chain: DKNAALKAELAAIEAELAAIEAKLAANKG

[6] = target: T6, APC4336-AA; assay: two-hybrid library CCmax; details: mean of both orientations;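 note: natural log of median RNA to DNA barcode read ratio; higher means stronger binding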
T6 chain: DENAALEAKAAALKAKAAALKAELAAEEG

[7] = target: T7, APC3354-AA; assay: two-hybrid library CCmax; details: mean of both orientations
T7 chain: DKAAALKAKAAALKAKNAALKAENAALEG

[8] = target: T8, APC3323-AA; assay: two-hybrid library CCmax
T8 chain: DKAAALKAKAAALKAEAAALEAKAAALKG

[9] = target: T9, APC542-AA; assay: two-hybrid library CCmax; details: mean of both orientations
T9 chain: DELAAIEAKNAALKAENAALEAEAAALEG

[10] = target: T10, APC9291-AA; assay: two-hybrid library CCmax; details: mean of both orientations
T10 chain: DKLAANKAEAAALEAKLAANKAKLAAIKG

[11] = target: T11, APC6088-AA; assay: two-hybrid library CCmax; details: mean of both orientations
T11 chain: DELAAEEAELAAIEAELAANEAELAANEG

[12] = target: T12, APC9806-AA; assay: two-hybrid library CCmax; details: mean of both orientations
T12 chain: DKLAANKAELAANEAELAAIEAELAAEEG

[13] = target: T13, APC7524-AA; assay: two-hybrid library CCmax; details: mean of both orientations
T13 chain: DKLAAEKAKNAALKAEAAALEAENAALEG

[14] = target: T14, APC9141-AA; assay: two-hybrid library CCmax; details: mean of both orientations
T14 chain: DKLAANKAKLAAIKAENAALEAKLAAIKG

[15] = target: T15, APC9182-AA; assay: two-hybrid library CCmax; details: mean of both orientations
T15 chain: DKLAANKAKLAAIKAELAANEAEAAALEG

[16] = target: T16, APC5531-AA; assay: two-hybrid library CCmax; details: mean of both orientations
T16 chain: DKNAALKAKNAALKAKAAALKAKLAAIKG

[17] = target: T17, P2-AA; assay: two-hybrid library CCmax; details: mean of both orientations
T17 chain: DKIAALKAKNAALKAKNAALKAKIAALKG

[18] = target: T18, P11-AA; assay: two-hybrid library CCmax; details: mean of both orientations
T18 chain: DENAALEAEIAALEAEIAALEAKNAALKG

[19] = target: GCN2_T; assay: two-hybrid library CCmax
[20] = target: T19, P12-AA; assay: two-hybrid library CCmax; details: mean of both orientations
T19 chain: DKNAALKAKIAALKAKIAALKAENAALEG

[21] = target: T20, P3-AA; assay: two-hybrid library CCmax; details: mean of both orientations
T20 chain: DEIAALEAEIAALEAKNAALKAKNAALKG

[22] = target: T21, P8-AA; assay: two-hybrid library CCmax; details: mean of both orientations
T21 chain: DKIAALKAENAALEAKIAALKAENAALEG

[23] = target: T22, P9-AA; assay: two-hybrid library CCmax; details: mean of both orientations
T22 chain: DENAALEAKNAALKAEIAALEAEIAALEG

[24] = target: T23, P4-AA; assay: two-hybrid library CCmax; details: mean of both orientations
T23 chain: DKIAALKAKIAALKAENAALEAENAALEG

[25] = target: T24, P1-AA; assay: two-hybrid library CCmax; details: mean of both orientations
T24 chain: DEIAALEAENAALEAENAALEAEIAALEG

[26] = target: T25, AP8-AA; assay: two-hybrid library CCmax
T25 chain: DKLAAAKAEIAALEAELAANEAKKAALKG

[27] = target: T26, P7-AA; assay: two-hybrid library CCmax; details: mean of both orientations
T26 chain: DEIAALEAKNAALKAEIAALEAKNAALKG

[28] = target: T27, P10-AA; assay: two-hybrid library CCmax; details: mean of both orientations
T27 chain: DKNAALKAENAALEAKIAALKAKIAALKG

[29] = target: T28, 4H3926-bA; assay: two-hybrid library CCNG1
T28 chain: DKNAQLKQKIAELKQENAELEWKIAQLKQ

[30] = target: T29, 4H3613-bA; assay: two-hybrid library CCNG1
T29 chain: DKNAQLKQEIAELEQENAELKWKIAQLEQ

[31] = target: T30, 4H906-bA; assay: two-hybrid library CCNG1
T30 chain: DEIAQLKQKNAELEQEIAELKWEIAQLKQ

[32] = target: T31, 4H3497-bA; assay: two-hybrid library CCNG1
T31 chain: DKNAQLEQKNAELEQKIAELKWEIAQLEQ

[33] = target: T32, 4H3628-bA; assay: two-hybrid library CCNG1
T32 chain: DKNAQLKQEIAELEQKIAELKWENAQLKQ

[34] = target: T33, 4H591-bA; assay: two-hybrid library CCNG1
T33 chain: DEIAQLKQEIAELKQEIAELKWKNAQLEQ

[35] = target: T34, 4H626-bA; assay: two-hybrid library CCNG1
T34 chain: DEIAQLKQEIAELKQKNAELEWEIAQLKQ

Binder: DKAAALKAKAAALKAEAAALEAKAAALKG [APC3323-AA]
- interaction score [1]: -1.64
- interaction score [2]: -1.75
- interaction score [3]: -1.35
- interaction score [4]: 1.59
- interaction score [5]: -1.38
- interaction score [6]: -2.27
- interaction score [7]: -1.64
- interaction score [8]: 0.173
- interaction score [9]: -1.45
- interaction score [10]: -1.84
- interaction score [11]: -1.65
- interaction score [12]: -1.66
- interaction score [13]: -1.5
- interaction score [14]: -2.12
- interaction score [15]: -1.64
- interaction score [16]: -1.7

Binder: DKLAAAKAEIAALEAELAANEAKKAALKG [AP8-AA]
- interaction score [17]: -1.71
- interaction score [18]: -1.41
- interaction score [19]: -1.88
- interaction score [20]: -0.366
- interaction score [21]: -1.35
- interaction score [22]: -1.39
- interaction score [23]: -0.718
- interaction score [24]: -1.17
- interaction score [25]: -1.78
- interaction score [26]: -1.3
- interaction score [27]: -1.21
- interaction score [28]: -0.57

Binder: DKNAQLEQKNAELEQKIAELKWEIAQLEQ [4H3497-bA]
- interaction score [29]: -1.24
- interaction score [30]: -1.15
- interaction score [31]: -1.2
- interaction score [32]: -0.278
- interaction score [33]: -0.547
- interaction score [34]: -1.08
- interaction score [35]: -1.45
